Laboratory results as given in article PMC4728560, “TCTP contains a BH3-like domain, which instead of inhibiting, activates Bcl-xL” (Scientific Reports, 2016).
Read-outs that look alike come from different tables or passages of the source.

How the values were obtained:
[1] = target: Bcl-xL, recombinant protein (human) (UniProt Q07817); experiment: ITC; peptide titrated into Bcl-xL in the cell; 30 °C, 50 mM ammonium bicarbonate pH 9; ITC200 calorimeter
[2] = target: Bcl-xL, recombinant protein (human) (UniProt Q07817); experiment: as above; remark: listed apart in the source

Sequence of Bcl-xL, recombinant protein (human) (Q07817 whole entry): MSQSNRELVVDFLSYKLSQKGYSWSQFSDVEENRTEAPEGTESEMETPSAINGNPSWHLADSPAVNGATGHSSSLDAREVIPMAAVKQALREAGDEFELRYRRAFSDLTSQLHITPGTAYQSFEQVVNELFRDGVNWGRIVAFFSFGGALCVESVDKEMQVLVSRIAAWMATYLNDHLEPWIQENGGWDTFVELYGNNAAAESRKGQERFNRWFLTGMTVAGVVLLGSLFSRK

- Kd [1]: 12 µM
- Kd [2]: 10 to 15 µM
Binder: DEMFSDIYKIREIADGLCLEV [TCTP_(11–31) peptide]
